16 molecules from patent US20250171534A1 (D2M BIOTHERAPEUTICS, published 2025) can be followed below.

Like-named read-outs stand apart in the source and are kept apart here.

For experiment [1], the target named is T1, human LILRB1 expressed on cells (human, UniProt Q8NHL6 24-650).
T1 construct: In 293T cells it was expressed from pCMV3-LILRB1-GFP; also called CHO-LILRB1; Jurkat-LILRB1
The experiment is described as follows: flow cytometry, CHO-LILRB1 cells.

In experiment [2] the target is T2, human LILRB2 expressed on cells (human, UniProt Q8N423 22-597).
T2 construct: In 293T cells it was expressed from pCMV3-LILRB2-GFP; also called CHO-LILRB2; Jurkat-LILRB2
T2 sequence (Q8N423 other isoform, or with tags, fused parts or gaps limits assumed): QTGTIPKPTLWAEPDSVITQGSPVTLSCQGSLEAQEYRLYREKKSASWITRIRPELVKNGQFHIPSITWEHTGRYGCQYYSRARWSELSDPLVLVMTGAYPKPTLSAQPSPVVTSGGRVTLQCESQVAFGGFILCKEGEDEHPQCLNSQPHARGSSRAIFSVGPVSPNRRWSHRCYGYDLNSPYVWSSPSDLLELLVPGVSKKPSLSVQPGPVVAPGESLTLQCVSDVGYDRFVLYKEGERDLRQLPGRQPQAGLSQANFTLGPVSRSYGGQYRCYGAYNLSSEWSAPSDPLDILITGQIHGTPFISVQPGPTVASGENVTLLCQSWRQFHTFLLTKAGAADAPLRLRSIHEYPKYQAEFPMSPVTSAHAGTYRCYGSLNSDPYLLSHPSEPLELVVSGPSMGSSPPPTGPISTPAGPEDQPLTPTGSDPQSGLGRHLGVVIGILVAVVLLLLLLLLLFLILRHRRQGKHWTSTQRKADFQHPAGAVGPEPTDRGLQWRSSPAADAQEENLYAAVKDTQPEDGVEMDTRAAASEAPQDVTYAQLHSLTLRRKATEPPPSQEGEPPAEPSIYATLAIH
Nature of the experiment: flow cytometry, CHO-LILRB2 cells.

Experiment [3] addresses T3, LILRB1-ECD-HIS (SinoBiological Cat #: 16014-H02H) (human, UniProt Q8NHL6 24-461).
T3 construct: Bought protein; also called monomeric antigen LILRB1-ECD-HIS; not shown: His tag
Nature of the experiment: SPR (Carterra LSA), antibody captured, antigen injected.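 Further: kd obtained from kinetic analysis of antibody binding to the antigen, with association and dissociation phases fitted in the instrument software.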

Experiment [4] concerns the target T4, LILRB2-ECD-HIS (SinoBiological Cat #: 14132-H02H) (human, UniProt Q8N423 22-460).
T4 construct: Bought protein; also called monomeric antigen LILRB2-ECD-HIS; not shown: His tag
The experiment is described as above.

Experiment [5] concerns the target T1, human LILRB1 expressed on cells. The experiment is described as follows: flow cytometry, CHO-LILRB1 cells. The source holds these as a separate data set.
For experiment [6] the target is unchanged. Nature of the experiment: flow cytometry, CHO-LILRB1 cells; blocked ligand: APC HLA-G trimer tetramer.

T3 sequence (Q8NHL6 other isoform, or with tags, fused parts or gaps H02H H02H): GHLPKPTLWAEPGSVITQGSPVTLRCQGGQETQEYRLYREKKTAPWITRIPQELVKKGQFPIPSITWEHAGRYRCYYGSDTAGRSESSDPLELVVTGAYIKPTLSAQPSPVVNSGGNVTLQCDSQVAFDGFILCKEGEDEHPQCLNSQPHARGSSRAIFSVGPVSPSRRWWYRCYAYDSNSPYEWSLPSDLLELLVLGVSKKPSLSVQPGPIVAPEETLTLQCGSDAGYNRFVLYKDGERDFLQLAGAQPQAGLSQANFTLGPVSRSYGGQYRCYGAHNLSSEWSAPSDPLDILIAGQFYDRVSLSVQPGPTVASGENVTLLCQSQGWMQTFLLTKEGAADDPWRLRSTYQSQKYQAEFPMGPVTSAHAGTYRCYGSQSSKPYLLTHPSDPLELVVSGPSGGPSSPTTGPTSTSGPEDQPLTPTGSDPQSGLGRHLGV
T1 sequence (Q8NHL6 other isoform, or with tags, fused parts or gaps limits assumed): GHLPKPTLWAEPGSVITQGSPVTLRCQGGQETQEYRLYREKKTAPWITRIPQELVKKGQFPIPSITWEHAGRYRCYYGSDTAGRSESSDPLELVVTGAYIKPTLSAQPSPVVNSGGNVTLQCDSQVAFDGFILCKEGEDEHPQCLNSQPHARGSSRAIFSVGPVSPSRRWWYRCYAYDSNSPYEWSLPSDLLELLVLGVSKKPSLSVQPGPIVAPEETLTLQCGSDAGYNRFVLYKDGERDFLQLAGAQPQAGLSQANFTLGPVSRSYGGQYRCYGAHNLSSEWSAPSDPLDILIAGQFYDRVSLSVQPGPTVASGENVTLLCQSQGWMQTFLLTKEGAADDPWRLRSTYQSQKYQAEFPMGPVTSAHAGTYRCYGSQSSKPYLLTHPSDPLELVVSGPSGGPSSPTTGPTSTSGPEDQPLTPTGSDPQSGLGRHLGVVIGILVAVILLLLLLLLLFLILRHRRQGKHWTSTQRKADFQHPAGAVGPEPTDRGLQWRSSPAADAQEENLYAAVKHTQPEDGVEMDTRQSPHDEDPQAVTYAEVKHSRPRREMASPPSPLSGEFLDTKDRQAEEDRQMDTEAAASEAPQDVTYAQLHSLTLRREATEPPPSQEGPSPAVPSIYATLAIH
T4 sequence (Q8N423 other isoform, or with tags, fused parts or gaps H02H H02H): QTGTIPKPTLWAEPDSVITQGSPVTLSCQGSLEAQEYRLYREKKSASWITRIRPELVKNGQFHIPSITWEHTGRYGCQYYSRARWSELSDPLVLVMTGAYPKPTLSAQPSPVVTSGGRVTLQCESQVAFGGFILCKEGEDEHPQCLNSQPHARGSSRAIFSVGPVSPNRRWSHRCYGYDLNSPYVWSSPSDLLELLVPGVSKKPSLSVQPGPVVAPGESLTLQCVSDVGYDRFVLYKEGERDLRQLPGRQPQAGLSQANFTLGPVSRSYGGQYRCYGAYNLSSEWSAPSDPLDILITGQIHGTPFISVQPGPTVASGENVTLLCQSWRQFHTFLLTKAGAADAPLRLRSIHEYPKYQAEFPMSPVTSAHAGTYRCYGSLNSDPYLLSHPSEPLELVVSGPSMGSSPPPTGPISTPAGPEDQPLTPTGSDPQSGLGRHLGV

B1: #21 (antibody, human IgG1, V domains shown)
VH: QVQLQQSGAELMKPGASVKISCKATGSTFSSYWIEWVKQRPGHGLEWIGEILPGSGSTNYNEKFKGKATFTADTSSNTAYMQLSSLTSEDSAVYYCARSGAGGYDSGAFAYWGQGTLVTVSA
VL: DIVLTQSPASLAVSLGQRATISCRASESVDTYGNSFMHWYQQKPGQPPKLLIYRTSNLESGIPARFSGSGSRTDFTLTINPVEADDVATYYCQQSNEDPWTFGGGTKLEIK
notes: also called D2M002-021
For B1, the EC50 in experiment [1] is 2.35 µg/mL; in experiment [2], 0.894 µg/mL. For the same molecule, the results for the “gMFI (max)” value in experiment [1] and in experiment [2] were 50600 and 25600, respectively. Moreover, the figures for the dissociation constant (Kd) in experiment [3] and in experiment [4] were 667 pM and 100 pM, respectively.

B2: #41 (antibody, human IgG1, V domains shown)
VH: DVQLQQSGAELMKPGASVKISCKATGYTFSSSWIEWVKQRPGHGLEWIGEILPGSGNTSYNEKFKGKATFTADTSSSAAYMQLSSLTSEDSAVYYCARSGLYYDYGGFAYWGQGTLVTVSA
VL: DIVLTQSPASLAVSLGQRATISCRASESVDTYGNSFMHWYQQKPGQPPKLLIYRTSNLESGIPARFSGSGSRTDFTLTINPVEADDVATYYCQQSNEDPFTFGSGTKLEIK
notes: also called D2M002-041
As to B2, the Kd in experiment [3] stood at 23200 pM; in experiment [4] it was 624 pM.

B3: #18 (antibody, human IgG1, V domains shown)
VH: EVQLQQSGAELMKPGASVKISCKTTGNTFSSYWIEWVKQRPGHDLEWIGEILPGSGSTNYNEKFKGKATFTADTSSNTAYMQLNSLTSEDSAVYYCARSGAGGYDSGAFAYWGQGTLVTVSA
VL: DIVLTQSPASLAVSLGQRATISCRASESVDSYGNSFMHWYQQKPGQPPKLLIYRTSNLESGIPARFSGSGSRTDFTLTINPVEADDVATYYCQQSNEDPWTFGGGTKLEIK
notes: also called D2M002-018
In the case of B3, the Kd stood at 1360 pM in experiment [3] and 52.6 pM in experiment [4].

B4: #36 (antibody, human IgG1, V domains shown)
VH: QVQLQQSGAELMKPGASVRISCKATGYTFSSSWIEWVKQRPGHGLEWIGEILPGSGTTNYNEKFKGKATFTADTSSNTAYMQLSSLTSEDSAVYYCARSGAGGYDSGAFTYWGQGTLVTVSA
VL: DIVLTQSPASLAVSLGQRATISCRASESIDTYGNSFMHWYQQKPGQPPKLLIYRASNLESGIPARFSGSGSRTDFTLTINPVEADDVATYYCQQSNEDPWTFGGGTKLEIK
notes: also called D2M002-036
Regarding B4, the dissociation constant (Kd) in experiment [3] was determined as 3440 pM; in experiment [4], 145 pM.

B5: #20 (antibody, human IgG1, V domains shown)
VH: QVQFQQSGVELMKPGASVKISCKATGNTFSNYWIEWVKQRPGHDLEWIGEILPGSGSTNYNEKFKGKATFTADTSSNTAYMQLNSLTSEDSAVYYCARSGAGGYDSGAFAYWGQGTLVTVSA
VL: DIVMTQSPASLAVSLGQRATISCRASESVDSYGNSFMHWYQQKPGQPPKLLIYRTSNLESGIPARFSGSGSRTDFTLTINPVEADDVATYYCQQSNEDPWTFGGGTKLEIK
notes: also called D2M002-020
For the molecule B5, the Kd came out at 1190 pM in experiment [3] and 200 pM in experiment [4].

B6: #23 (antibody, human IgG1, V domains shown)
VH: QVQMQQPGAELMKPGASVKISCKATGYTFSRYWIEWVKQRPGHGLEWIGEILPGDGSTNYNAKFKGQATFTADTSSNTAYMQFSSLTYEDSAVYYCARSGAGGYDSGAFAYWGQGTLVTVSS
VL: DIVLTQSPASLAVSLGQRATISCRASESVDTYGNSFMHWYQQKPGQPPKLLIYRTSNLESGIPARFSGSGSRTDFTLTINPVEADDVATYYCQQSNEDPWTFGGGTKLEIK
notes: also called D2M002-023
Turning to B6, the dissociation constant Kd in experiment [3] is 7650 pM; in experiment [4] it was 636 pM.

B7: #29 (antibody, human IgG1, V domains shown)
VH: EVQLQQSGAEVKKPGASVKISCKATGYTFSSYWIEWVKQRPGHGLEWIGEILPGSGSTNYNEKFKGKATFTADTSSNTAYMQLSSLTSEDFTVYYCARSGAGGYDSGAFGYWGQGTLVTVSS
VL: DIVMTQSPASLAVSLGQRATISCRASESIDTYGNSFMHWYQQKPGQPPKLLIYRASNLESGIPARFSGSGSRTDFTLTINPVEADDVATYYCQQSNEDPWTFGGGTKLEIK
notes: also called D2M002-029
Consider B7, for which the values for the dissociation constant (Kd) in experiment [3] and in experiment [4] were 28700 pM and 1590 pM, respectively.

B8: #35 (antibody, human IgG1, V domains shown)
VH: QVQLQQSGAELMKPGASVRISCKATGYTFSSSWIEWVKQRPGHGLEWIGEILPGSGSTNYNEKFKGKATFTADTSSNTAYMQLSSLTSEDSAVYYCARSGAGGYDSGAFTYWGQGTLVTVSA
VL: DIVLTQSPASLAVSLGQRATISCRASESIDTYGNSFMHWYQQKPGQPPKLLIYRASNLESGIPARFSGSGSRTDFTLTINPVEADDVATYYCQQSNEDPWTFGGGTKLEIK
notes: also called D2M002-035
B8: the Kd in experiment [3] stood at 10400 pM; in experiment [4] it was 617 pM.

B9: #31 (antibody, human IgG1, V domains shown)
VH: QVQMQPFGAELMKPGASVRISCKATGYTFSSSWIEWVKQRPGHGLEWIGEILPGSGTTNYNEKFKGKATFTADTSSNTAYMQLSSLTSEDSAVYYCARSGAGGYDSGAFTYWGQGTLVTVSA
VL: DIVLTQSPASLAVSLGQRATISCRASESIDTYGNSFMHWYQQKPGQPPKLLIYRASNLESGIPARFSGSGSRTDFTLTINPVEADDVATYYCQQSNEDPWTFGGGTKLEIK
notes: also called D2M002-031
On to B9, for which the Kd is 20000 pM in experiment [3] and 1260 pM in experiment [4].

B10: #17 (antibody, human IgG1, V domains shown)
VH: EVQLQQSGAELMKPGASVKISCKTTGNTFSSYWIEWVKQRPGHDLEWIGEILPGSGSSNYNEKFKGKATFTADTSSNTAYMQLNSLTSEDSAVYYCARSGAGGYDSGAFAYWGQGTLVTVSA
VL: DIVLTQSPASLAVSLGQRATISCRASESVDSYGNSFMHWYQQKPGQPPKLLIYRTSNLESGIPSRFSGSGSRTDFTLTINPVEADDVATYYCQQSNEDPWTFGGGTKLEIK
notes: also called D2M002-017
With B10, the Kd amounted to 1180 pM in experiment [3] and 47.6 pM in experiment [4].

B11: #40 (antibody, human IgG1, V domains shown)
VH: EVQLQQSGAELMKPGASVKISCKTTGNTFSSYWIEWVKQRPGHDLEWIGEILPGRGSTNNNEKFKGKAPFTADTSSNTAYMQLNSLTSEDSAVYYCARSGGGGYDSGAFAYWGQGTLVTVSA
VL: DIVLTQSPASLAVSLGQRATISCRASESVDTYGNSFMHWYQQKPGQPPKLLIYRTSNLESGIPARFSGSGSRTDFTLTINPVEADDVATYYCQQSNEDPWTFGGGTKLEIK
notes: also called D2M002-040
As to B11, the values for the Kd in experiment [3] and in experiment [4] were 34400 pM and 3050 pM, respectively.

B12: #16 (antibody, human IgG1, V domains shown)
VH: EVQLQQSGAELMKPGASVKISCKATGNTFSSYWIEWVKQRPGHDLEWIGEILPGSGSTNYNEKFKGKATFTADTSSNTAYMQLNSLTSEDSAVYYCARSGAGGYDSGAFAYWGQGTLVTVSA
VL: DIEMTQSPASLAVSLGQRATISCRASESIDSYGNSFMHWYQQKPGQPPKLLIYRTSNLESGIPARFSGSGSRTDFTLTINPVEADDVATYYCQQSNEDPWTFGGGTKLEIK
notes: also called D2M002-016
B12: the EC50 in experiment [5] was 2.66 µg/mL. Besides, the Kd in experiment [3] is 714 pM; in experiment [4], 38.5 pM. Moreover, the IC50 in experiment [6] stood at 1.18 µg/mL.

B13: #28 (antibody, human IgG1, V domains shown)
VH: EVQLQQSGAELMKPGASVKISCKATGYTFSSYWIEWVKQRPGHGLEWIGEILPGSGSTNYNEKFKGKATFTADTSSNTAYMQLSSLTSEDSAVYYCARSGAGGYDSGAFAYWGQGTLVTVSS
VL: DIVMTQSPASLAVSLGQRATISCRASESVDTYGNSFMHWYQQKPGQPPKLLIYRTSNLESGIPARFSGSGSRTDFTLTINPVEADDVATYYCQQSNEDPWTFGGGTKLEIK
notes: also called D2M002-028
As for B13, the EC50 amounted to 1.83 µg/mL in experiment [1] and 0.836 µg/mL in experiment [2]. Besides, the “gMFI (max)” value in experiment [1] was found to be 40300; in experiment [2], 26600. The Kd in experiment [3] was 882 pM; in experiment [4], 38.5 pM.

B14: #12 (antibody, human IgG1, V domains shown)
VH: QIQLLQSGAELMKPGASVKISCKATGYTFSNYWIEWVKQRPGHGLEWIGEILPGSGSTNYNEKFKGKATFTADTSSNTAYMQLSSLTSEDSAVYYCARSGAGGYDSGAFAYWGQGTLVTVSS
VL: DIVLTQSPASLAVSLGQRATISCRASESVDSYGNSFMHWYQQKPGQPPKLLIYRTSNLESGIPARFSGSGSRTDFTLTINPVEADDVAAYYCQQSNEDPWTFGGGTKLEIK
notes: also called D2M002-012
On to B14, for which the Kd in experiment [3] was found to be 1600 pM; in experiment [4] it was 200 pM.

B15: #8 (antibody, human IgG1, V domains shown)
VH: EVQLQQPGAELMKPGASVKISCKATGYTFSSSWTEWVKQRPGHGLEWIGEILPGSGSTNYNEKFKGKATFTADTSSNTAYMQLSSLTSEDSAVYYCARSGAGGYDSGAFAYWGQGTLVTVSA
VL: DIVLTQSPASLAVSLGQRATISCRASESIDTYGNSFMHWYQQKPGQPPKLLIYRTSNLESGIPARFSGSGSRTDFTLTINPVEADDVATYYCQQSNEDPWTFGGGTKLEIK
notes: also called D2M002-008
For the molecule B15, the figures for the EC50 in experiment [5], in experiment [1] and in experiment [2] were 0.768 µg/mL, 1.08 µg/mL and 0.565 µg/mL, respectively. In addition, the “gMFI (max)” value in experiment [1] turned out to be 46500; in experiment [2], 24800. In addition, the Kd in experiment [3] amounted to 640 pM; in experiment [4], 191 pM. In experiment [6], it took 0.26 µg/mL to reach half-maximal inhibition (IC50).

B16: #3 (antibody, human IgG1, V domains shown)
VH: QIQLLQSGPELVKPGASVKMSCKASGYTFTRYVMYWVKQKPGQGLEWIGYINPDNDGTKYNEKFKGKATLTSDKSSSTAYMELSSLTSEDSAVYYCARGDLELLPYYDYVRNAMDYWGQGTSVTVSS
VL: DIQMTQSPASLSASVGETVTITCRASGNIHNYLAWYQQKQGKSPQLLVYNAKTLADGVPSRFSGSGSGTQYSLKINSLQPEDFGSYYCQHFWSTPPTFGGGTKLEIK
notes: also called D2M002-003
In the case of B16, the EC50 in experiment [1] came to 0.264 µg/mL; in experiment [2], 0.058 µg/mL. Besides, the “gMFI (max)” value in experiment [1] worked out at 29900; in experiment [2] it was 18500. For the same molecule, the Kd was determined as 57100 pM in experiment [3] and 542 pM in experiment [4].
